Experimental data as given in IntAct's records for PubMed 25910212.

B1: Inactive peptidyl-prolyl cis-trans isomerase FKBP6 (Homo sapiens), O75344 (parent)
chain: MGGSALNQGVLEGDDAPGQSLYERLSQRMLDISGDRGVLKDVIREGAGDLVAPDASVLVKYSGYLEHMDRPFDSNYFRKTPRLMKLGEDITLWGMELGLLSMRRGELARFLFKPNYAYGTLGCPPLIPPNTTVLFEIELLDFLDCAESDKFCALSAEQQDQFPLQKVLKVAATEREFGNYLFRQNRFYDAKVRYKRALLLLRRRSAPPEEQHLVEAAKLPVLLNLSFTYLKLDRPTIALCYGEQALIIDQKNAKALFRCGQACLLLTEYQKARDFLVRAQKEQPFNHDINNELKKLASCYRDYVDKEKEMWHRMFAPCGDGSTAGES
B2: Elongation factor Ts, mitochondrial (Homo sapiens), P43897-2 (parent)
chain: MSLLRSLRVFLVARTGSYPAGSLLRQSPQPRHTFYAGPRLSASASSKELLMKLRRKTGYSFVNCKKALETCGGDLKQAEIWLHKEAQKEGWSKAAKLQGRKTKEGLIGLLQEGNTTVLVEVNCETDFVSRNLKFQLLVQQVALGTMMHCQTLKDQPSAYSKVQWLTPVNLALWEAEAGGSLEGFLNSSELSGLPAGPDREGSLKDQLALAIGKLGENMILKRAAWVKVPSGFYVGSYVHGAMQSPSLHKLVLGKYGALVICETSEQKTNLEDVGRRLGQHVVGMAPLSVGSLDDEPGGEAETKMLSQPYLLDPSITLGQYVQPQGVSVVDFVRFECGEGEEAAETE
B3: Tumor necrosis factor receptor superfamily member 13B (Homo sapiens), O14836-2 (parent)
chain: MSGLGRSRRGGRSRVDQEERWSLSCRKEQGKFYDHLLRDCISCASICGQHPKQCAYFCENKLRSPVNLPPELRRQRSGEVENNSDNSGRYQGLEHRGSEASPALPGLKLSADQVALVYSTLGLCLCAVLCCFLVAVACFLKKRGDPCSCQPRSRPRQSPAKSSQDHAMEAGSPVSTSPEPVETCSFCFPECRAPTQESAVTPGTPDPTCAGRWGCHTRTTVLQPCPHIPDSGLGIVCVPAQEGGPGA

Variants of: B1
Details: with lzts2_human LZTS2, Q9BRK4
Sequence of lzts2_human LZTS2, Q9BRK4 (Q9BRK4 whole entry): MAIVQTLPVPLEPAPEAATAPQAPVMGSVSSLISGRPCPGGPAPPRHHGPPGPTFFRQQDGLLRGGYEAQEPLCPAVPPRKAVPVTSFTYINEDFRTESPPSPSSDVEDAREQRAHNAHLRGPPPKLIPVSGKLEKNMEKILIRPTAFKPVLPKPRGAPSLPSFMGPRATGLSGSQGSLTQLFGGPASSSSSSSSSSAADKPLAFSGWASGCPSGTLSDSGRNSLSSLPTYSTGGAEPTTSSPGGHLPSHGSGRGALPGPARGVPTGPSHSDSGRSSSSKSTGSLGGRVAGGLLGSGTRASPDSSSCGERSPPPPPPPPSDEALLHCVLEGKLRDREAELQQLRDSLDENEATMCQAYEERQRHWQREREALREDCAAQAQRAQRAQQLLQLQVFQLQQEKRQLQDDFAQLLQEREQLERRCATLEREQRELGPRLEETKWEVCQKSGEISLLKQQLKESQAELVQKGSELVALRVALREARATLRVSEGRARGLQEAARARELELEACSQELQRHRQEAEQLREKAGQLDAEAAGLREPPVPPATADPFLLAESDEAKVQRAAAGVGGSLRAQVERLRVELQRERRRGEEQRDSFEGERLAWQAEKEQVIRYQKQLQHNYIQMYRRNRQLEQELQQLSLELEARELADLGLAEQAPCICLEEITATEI

effect of a mutation on the interaction | Variant
disrupting interaction strength | F72L
with no effect | R202H

Variants of: B1
Details: with meox2_human MEOX2, P50222
Sequence of meox2_human MEOX2, P50222 (P50222 whole entry): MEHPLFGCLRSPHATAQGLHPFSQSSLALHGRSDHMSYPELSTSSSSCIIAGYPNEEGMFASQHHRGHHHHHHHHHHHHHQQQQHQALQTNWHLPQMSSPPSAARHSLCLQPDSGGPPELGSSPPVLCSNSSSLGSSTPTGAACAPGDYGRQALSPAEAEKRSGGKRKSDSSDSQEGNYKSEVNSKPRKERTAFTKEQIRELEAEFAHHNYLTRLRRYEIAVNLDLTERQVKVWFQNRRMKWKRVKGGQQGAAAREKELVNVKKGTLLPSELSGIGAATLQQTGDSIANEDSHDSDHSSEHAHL

effect of a mutation on the interaction | Variant
disrupting interaction strength | F72L
with no effect | R202H

Variants of: B2
Details: with pp12c_human PPP1R12C

effect of a mutation on the interaction | Variant
disrupting interaction strength | R333W

Variants of: B3
Details: with sgta_human SGTA

Variant | effect of a mutation on the interaction
L125R | disrupting interaction strength
P205L | with no effect
C58R | with no effect
A103T | with no effect
K142M | with no effect

Results, then the variant that gave them:

effect of a mutation on the interaction | Variant
with no effect | V200F
with no effect | V174A
